Residue numbers refer to the chain shown, from its start.
T1: mouse SEMA4D, full length, on CHO-K1 cells (CHO-K1 mSEMA4D) (mouse, UniProt O09126 24-861)
T1 construct: whole, on cells; also called murine SEMA4D recombinant cells
T1 sequence (looked up): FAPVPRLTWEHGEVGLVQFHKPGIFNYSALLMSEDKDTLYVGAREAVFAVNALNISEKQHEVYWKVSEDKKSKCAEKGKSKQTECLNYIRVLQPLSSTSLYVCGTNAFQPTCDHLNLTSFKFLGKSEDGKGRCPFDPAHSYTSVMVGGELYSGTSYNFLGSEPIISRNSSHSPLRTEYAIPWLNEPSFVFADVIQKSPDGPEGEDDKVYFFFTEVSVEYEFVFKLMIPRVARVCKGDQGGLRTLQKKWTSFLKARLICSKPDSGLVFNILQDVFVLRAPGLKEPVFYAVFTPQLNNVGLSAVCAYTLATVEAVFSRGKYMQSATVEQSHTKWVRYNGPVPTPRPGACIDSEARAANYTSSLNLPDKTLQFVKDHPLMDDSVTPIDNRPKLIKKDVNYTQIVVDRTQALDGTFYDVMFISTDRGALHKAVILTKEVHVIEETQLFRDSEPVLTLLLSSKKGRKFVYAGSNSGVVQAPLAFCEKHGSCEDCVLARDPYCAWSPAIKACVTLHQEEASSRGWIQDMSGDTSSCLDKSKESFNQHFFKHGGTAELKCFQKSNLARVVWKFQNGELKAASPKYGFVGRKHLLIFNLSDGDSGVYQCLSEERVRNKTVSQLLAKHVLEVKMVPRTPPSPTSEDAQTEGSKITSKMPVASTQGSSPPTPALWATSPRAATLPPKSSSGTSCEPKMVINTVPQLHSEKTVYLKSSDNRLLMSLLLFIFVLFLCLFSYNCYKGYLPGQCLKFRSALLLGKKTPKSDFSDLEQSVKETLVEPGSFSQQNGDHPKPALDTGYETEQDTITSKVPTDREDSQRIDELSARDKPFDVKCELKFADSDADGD

T2: human SEMA4D, full length, on CHO-K1 cells (CHO-K1 hSEMA4D) (human, UniProt Q92854 22-862)
T2 construct: whole, on cells; also called human SEMA4D recombinant cells
T2 sequence (looked up): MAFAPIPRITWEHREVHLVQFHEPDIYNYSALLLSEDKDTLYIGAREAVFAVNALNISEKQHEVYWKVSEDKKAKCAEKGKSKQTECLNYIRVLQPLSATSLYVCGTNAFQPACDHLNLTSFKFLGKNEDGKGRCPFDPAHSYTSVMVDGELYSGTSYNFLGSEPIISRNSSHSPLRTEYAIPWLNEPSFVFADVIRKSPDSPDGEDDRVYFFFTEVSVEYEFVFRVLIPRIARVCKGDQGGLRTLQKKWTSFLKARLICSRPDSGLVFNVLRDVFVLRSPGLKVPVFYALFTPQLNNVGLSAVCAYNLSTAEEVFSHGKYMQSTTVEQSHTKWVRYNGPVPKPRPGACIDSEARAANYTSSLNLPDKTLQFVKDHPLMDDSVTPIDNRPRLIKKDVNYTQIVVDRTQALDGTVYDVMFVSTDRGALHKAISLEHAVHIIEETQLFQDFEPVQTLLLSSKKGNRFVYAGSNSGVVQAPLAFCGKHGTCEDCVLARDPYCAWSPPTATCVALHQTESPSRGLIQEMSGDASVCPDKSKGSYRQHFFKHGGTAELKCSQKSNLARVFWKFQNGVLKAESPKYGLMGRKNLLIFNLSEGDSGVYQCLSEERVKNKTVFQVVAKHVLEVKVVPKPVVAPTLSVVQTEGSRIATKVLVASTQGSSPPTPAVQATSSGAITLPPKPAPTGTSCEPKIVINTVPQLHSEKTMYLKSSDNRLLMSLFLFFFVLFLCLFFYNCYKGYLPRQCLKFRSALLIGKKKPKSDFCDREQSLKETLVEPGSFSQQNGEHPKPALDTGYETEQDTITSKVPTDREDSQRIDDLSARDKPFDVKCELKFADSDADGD

B1: 32C8F10 (antibody, V domains shown)
VH: EVQLQQSGAELVRPGASVKLSCTASGFNIKDEYIHWVKQRPEQGLEWIGWIDPANGHTEYASRFQAKATITADTSSNTAYLQLSSLTSEDTAVYYCTTGDYDGFAYWGQGTLVTVST
VL: QIVLTQSPAIMSASPGEKVTISCSARSSVSYMYWYQQKPGSSPKPWIYRTSNLASGVPARFSGSGSGTSYSLTISSMEAEDAATYYCQHYHTYPYTFGGGTKLEIK
notes: Mouse monoclonal antibody purified from hybridoma supernatant on protein A
B2: 31G10C5 (antibody, V domains shown)
VH: B1 VH with E32D, T58I, R63N, A105T
VL: B1 VL
notes: as for B1
B3: 31C11G2 (antibody, V domains shown)
VH: B1 VH with A105V
VL: B1 VL with S22F
notes: as for B1
B4: 37C4F7 (antibody, V domains shown)
VH: EFQLQQSGPEVVKPGASVKISCKASGYSFTDYNMNWMKQSKGKSLEWIGVINPNYGTTTYNQNFKGKATLTVDQSSSTAYMQLNSLTSEDSAVYYCARDMYYVYAYYTMDYWGQGTSVTVSS
VL: DVVMTQTPLSLPVSLGDQASISCRSSQSLVHSNGHTYLHWYLQRPGQSPTLLIYKVSNRFSGVPDRFSGSGSGTDFTLKISRVEAEDLGVYFCSQGTHVPWTFGGGTKLEIK
notes: as for B1
B5: 38H2E3 (antibody, V domains shown)
VH: B4 VH with N52S, N54D, G66D, R98K, Q114H
VL: B4 VL with F67V, W101R
notes: as for B1
B6: 37F11F9 (antibody, V domains shown)
VH: EVQLQQSGPVLVKPGASVKMSCKASGYTFTDYYMNWVKQSHGKSLEWIGLINPYSGGSTFNQKFKAKATLTVDKSSSSAYMDLNSLTSEDSAVYYCARVGDGYYGVTHGMDYWGQGTSVTVSS
VL: DIVMTPSQKFMSTTVGDRVSITCKASQNVGTAVAWYQQKPGQSPTILIYSASNRYTGVPDRFTGSGSGTDFTLTISNMKSEDLADYFCQQYYIYPFTFAAGTKLELK
notes: as for B1
B7: 42B7G2 (antibody, V domains shown)
VH: QVQLQQSGAELARPGASVKLSCKASGYTFTDYGISWVKQRTGQGLEWIGEIYLRNDNSYYNEKFKGKATLTADKSSNTAYMELRSLTSEDSAVYFCARWGDHGNNYEDAMDYWGQGTSVTVSS
VL: DIVLTQSPASLAMSLGKRATISCRASESVSIIGSNLIHWYQQKPGQPPKLLIYHASNLETGVPARFSGSGSRTDFTLTIDPVEEDDVAIYYCLQSRKVPYTFGGGTKLEIK
notes: as for B1

target: T1, mouse SEMA4D, full length, on CHO-K1 …; assay: FACS, CHO-K1 mSEMA4D cells; Ab 0.534 nM
Description: (§1) After the cells were counted, they were diluted with PBS to 2×10⁶ cells per milliliter. After washing, 100 μL of diluted and purified leading antibodies was added to each well and the plate was incubated for 1 hour on ice. […] Cells were washed 2 times by centrifugation with FACS buffer. The cells were suspended with 200 μL of FACS buffer, FACS (FACS Verse, purchased from BD) was used to detect and analyze the results.

Row | MFI | Binder
1 | 29.8 | B1
2 | 30.3 | B2
3 | 30.7 | B3
4 | 29.2 | B4
5 | 29.5 | B5
6 | 30.9 | B6
7 | 31.7 | B7

target: T1, mouse SEMA4D, full length, on CHO-K1 …; assay: FACS, CHO-K1 mSEMA4D cells; Ab 13.3 nM
Description: as §1

Row | MFI | Binder
8 | 30.6 | B1
9 | 30.9 | B2
10 | 31.3 | B3
11 | 29.8 | B4
12 | 31 | B5
13 | 30.1 | B6
14 | 30.7 | B7

target: T3, monkey SEMA4D, full length, on CHO-K1 cells (CHO-K1 cSEMA4D) (monkey); assay: FACS, CHO-K1 cSEMA4D cells; Ab 2.67 nM
T3 construct: whole, on cells; also called monkey SEMA4D recombinant cells
Description: as §1

Row | MFI | Binder
15 | 4920 | B1
16 | 4540 | B2
17 | 4420 | B3
18 | 1940 | B4
19 | 1750 | B5
20 | 2170 | B6
21 | 2640 | B7

target: T2, human SEMA4D, full length, on CHO-K1 …; assay: FACS, CHO-K1 hSEMA4D cells; Ab 0.534 nM
Description: (§2) The medium was aspirated, the cells were washed once with PBS buffer (purchased from Invitrogen), and then treated with cell dissociation fluid (TrypLE™ Express Enzyme, purchased from Life technology), and the cells were collected. After the cells counted, the cells were washed once with PBS phosphate buffer, and diluted to 3×10⁶ cells per milliliter, and added to the 96-well FACS reaction plate as 100 μL per well. 2% (w/w) fetal calf serum was added to PBS phosphate buffer as FACS buffer, with which the cells were washed once by centrifugation at 2000 rpm 4° C. 100 μL of diluted and purified leading antibodies was added to each well and the plate was incubated for 1 hour on ice. […] Cells were washed 2 times by centrifugation with FACS buffer. The cells were suspended with 200 μL of FACS buffer, and FACS (FACS Verse, purchased from BD) was used to detect and analyze the results.

Row | MFI | Binder
22 | 2920 | B1
23 | 3070 | B2
24 | 3140 | B3
25 | 738 | B4
26 | 763 | B5
27 | 1120 | B6
28 | 2000 | B7

target: T2, human SEMA4D, full length, on CHO-K1 …; assay: FACS, CHO-K1 hSEMA4D cells; Ab 13.3 nM
Description: as §2

Row | MFI | Binder
29 | 7830 | B1
30 | 6180 | B2
31 | 6670 | B3
32 | 4290 | B4
33 | 4630 | B5
34 | 3960 | B6
35 | 3950 | B7
